The target of this test is GST-Pin1 (UniProt Q13526). Put plainly: pull-down.

We go through two substances from publication PMC2966067.

With “FLAG-MEF2C S98A/S110A/S240A/S388A (natural protein)”, the percent of wild-type binding (densitometry) is 10%.
The substance FLAG-MEF2C S98/110A (natural protein) gave a percent reduction of binding against wild type (densitometry) of 70%.
